The values that follow come from patent publication US20150216970A1 (Genentech, published 2015).

Where a chain is given by its changes, count along the chain named. Numbers in names are those of the source.

Sequences and labels used below:
T1: CD226-Flag (Flag-tagged human CD226, expressed in transfected COS 7 cells) (human, UniProt Q15762 19-336)
T1 construct: whole, on cells; This is the construct of the co-immunoprecipitation; Cells were lysed before the pull-down; also called Flag-CD226; not shown: Flag tag
T1 sequence (looked up): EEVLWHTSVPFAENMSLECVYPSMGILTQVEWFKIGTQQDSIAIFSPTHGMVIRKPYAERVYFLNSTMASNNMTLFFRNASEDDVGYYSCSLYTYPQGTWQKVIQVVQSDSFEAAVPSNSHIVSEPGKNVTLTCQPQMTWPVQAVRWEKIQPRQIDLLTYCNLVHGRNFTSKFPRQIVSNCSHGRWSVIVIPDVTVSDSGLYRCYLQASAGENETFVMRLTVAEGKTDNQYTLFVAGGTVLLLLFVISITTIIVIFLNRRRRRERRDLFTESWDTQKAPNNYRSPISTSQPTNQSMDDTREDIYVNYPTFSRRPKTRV

T2: endogenous CD226 on primary human T cells (human, UniProt Q15762 19-336)
T2 construct: whole, on cells
T2 sequence (looked up): T1 sequence (looked up)

B1: Flag-ST-CD226 (N-terminus SNAP-tagged human CD226, expressed on transfected COS-7 or CHO cells) (receptor, UniProt Q15762 19-336, looked up)
chain: T1 sequence (looked up)
modifications: SNAP tag labelled with benzyl-guanine SNAP-Lumi-4Tb (donor) and/or SNAP-A647 (acceptor)
notes: whole, on cells; also called SNAP-tagged (ST) CD226; human ST-CD226; not shown: Flag tag; SNAP tag (ST)
B2: HA-TIGIT (N-terminus HA-tagged human TIGIT, expressed on transfected COS-7 or CHO cells) (receptor, UniProt Q495A1 22-244, looked up)
chain: MMTGTIETTGNISAEKGGSIILQCHLSSTTAQVTQVNWEQQDQLLAICNADLGWHISPSFKDRVAPGPGLGLTLQSLTVNDTGEYFCIYHTYPDGTYTGRIFLEVLESSVAEHGARFQIPLLGAMAATLVVICTAVIVVVALTRKKKALRIHSVEGDLRRKSAGQEEWSPSAPSPPGSCVQAEAAPAGLCGEQRGEDCAELHDYFNVLSYRSLGNCSFFTETG
notes: whole, on cells; It is treated here as one construct; also called TIGIT-HA; HA-TIGIT (WT); not shown: HA tag at the N-terminus
B3: endogenous TIGIT on primary human T cells (receptor, UniProt Q495A1 22-244, looked up)
chain: B2 chain
notes: whole, on cells
B4: HA-TIGIT Q56R (receptor, UniProt Q495A1 22-244, looked up)
chain: B2 chain with Q35R
notes: whole, on cells; also called Q56R TIGIT; not shown: HA tag

The data set “TR-FRET on COS-7 cells” concerns the molecule itself. The data set is described as follows: TR-FRET on COS-7 cells. On the procedure:
Briefly, COS-7 cells were transfected with SNAP-tagged (ST) CD226 and HA-TIGIT using Lipofectamine 2000 (Life Technologies) and seeded in a white 96-well plate (Costar) at 100,000 cells per well. 24 hours later, cells were labeled with 100 nM of donor-conjugated benzyl-guanine SNAP-Lumi-4Tb (Cisbio) and 1 μM […] benzyl-guanine SNAP-A647 (New England Biolabs) diluted in DMEM 10% FCS for 1 h at 37° C., 5% CO2. After three washes in PBS, the FRET signal was recorded at 665 nm for 400 μs after a 60 μs delay following laser excitation at 343 nm using a Safire2 plate reader (Tecan). When the anti-TIGIT antibody was tested, the FRET signal was also recorded after a 15 min incubation. The FRET ratio was then calculated as the FRET intensity divided by the donor emission at 620 nm. The FRET intensity being: (signal at 665 nm from cells labeled with SNAP-donor and acceptor)—(signal at 665 nm from the same batch of transfected cells labeled with SNAP-donor only).

For data set [1], the target named is B1. Nature of the data set: TR-FRET on transfected COS-7 cells. (In general: TR-FRET usually uses a lanthanide donor and a delayed reading to cut background.)
The target in data set [2] is T1, CD226-Flag (Flag-tagged human CD226, …). The data set is described as follows: anti-FLAG and anti-HA immunoprecipitation and immunoblot from COS-7 cells transfected with Flag-CD226 and HA-TIGIT. (In general: In western blotting, separated proteins are transferred to a membrane and probed.)
The target in data set [3] is T2, endogenous CD226 on primary human T …. The data set is described as follows: TR-FRET on primary human T cells with fluorophore-conjugated anti-TIGIT (clone 1F4) and anti-CD226. An excerpt: Primary human T cells were stimulated in vitro with anti-CD3 and anti-CD28 antibodies, sorted on the basis of TIGIT expression, rested, re-stimulated, and labeled with antibodies against endogenous TIGIT and CD226 that were conjugated to fluorophores compatible with TR-FRET. TIGIT-expressing T cells labeled with donor-conjugated anti-TIGIT and acceptor-conjugated anti-CD226 antibodies yielded a strong FRET signal (FIG. 30).
Human anti-TIGIT (Genentech clone 1F4), anti-CD226 (Santa Cruz Biotechnology), and anti-HVEM (eBioscience) antibodies were conjugated fluorophores compatible with TR-FRET (Cisbio). Primary human T cells were MACS-enriched from blood, stimulated in vitro with plate bound anti-CD3 and anti-CD28 for 72 hours. TIGIT-expressing and non-expressing T cells (all expressing CD226) were then sorted, rested without stimulation for 72 hours, and re-stimulated for 48 hours. […] T cells were then seeded at 400,000 cells/well in a white 96-well plate (Costar) and TR-FRET was recorded at 665 nm for 400 μs after a 60 μs delay following laser excitation at 343 nm using a PHERAstar plate reader (BMG Labtech). FRET intensity was expressed as the signal at 665 nm from cells labeled with Ab-Lumi4-Tb+Ab-d2 minus the signal at 665 nm from the same batch of cells labeled with Ab-Lumi4-Tb alone. […]

The target of data set [4] is B1. Nature of the data set: TR-FRET ratio between Flag-ST-CD226 and HA-TIGIT Q56R.

B1: the binding result in “TR-FRET on COS-7 cells” is recorded as “binds”.
Turning to B2, the binding result in data set [1] and in data set [2] was “binds” in each case.
As to B3, the binding result in data set [3] is listed as “binds”.
Take B4: the binding result in data set [4] is “binds”.
